Substrate: Nc1ncnc2c1ncn2[C@@H]1O[C@H](COP(=O)(O)OP(=O)(O)OP(=O)(O)O)[C@@H](O)[C@H]1O
Assay: DIPP1-coupled Pi-release malachite green assay
Type: biochemical, Zea mays
Conditions: 25 μM InsP6, 3.5 mM MgCl2, 100 mM KCl, pH 7.2, 25 °C

B1: ZmITPK1 (Zea mays) (protein)
chain: MASDAAAEPSSGVTHPPRYVIGYALAPKKQQSFIQPSLVAQAASRGMDLVPVDASQPLAEQGPFHLLIHKLYGDDWRAQLVAFAARHPAVPIVDPPHAIDRLHNRISMLQVVSELDHAADQDSTFGIPSQVVVYDAAALADFGLLAALRFPLIAKPLVADGTAKSHKMSLVYHREGLGKLRPPLVLQEFVNHGGVIFKVYVVGGHVTCVKRRSLPDVSPEDDASAQGSVSFSQVSNLPTERTAEEYYGEKSLEDAVVPPAAFINQIAGGLRRALGLQLFNFDMIRDVRAGDRYLVIDINYFPGYAKMPGYETVLTDFFWEMVHKDGVGNQQEEKGANHVVVK
Km: 364 µM

From PMC9202514
